Consider four molecules from publication PMC5315667 (The Plant journal : for cell and molecular biology, 2017).

Broadly, the Km is the concentration of substrate that gives half-maximal velocity. A word on the kcat: it is the maximal rate divided by the concentration of active sites. A word on the kcat/Km: it is the second-order rate constant that governs catalysis at low substrate concentration.

Data set [1] concerns the target T1, VvEG16 (Vitis vinifera, UniProt F6I323, E88A/DEL151-151). Briefly: X-ray crystallography, […] Å. The data set is classed as binding. The note with it: alpha-anomer, negative subsites of chain A.
The target in data set [2] is VvEG16 (Vitis vinifera, UniProt F6I323, C21S/DEL151-151/C188S). Briefly: X-ray crystallography, […] Å. The data set is classed as binding. The settings on record: co-crystallised with 5 mM; negative subsites.
Data set [3] deals with T1, VvEG16. As to the kind of experiment: X-ray crystallography, […] Å. The note with it: negative subsites of chain A; from tXyGO mixture. The class given is binding.
Substrate in data set [4]: O=[N+]([O-])c1ccc(O[C@@H]2O[C@H](CO)[C@@H](O[C@@H]3O[C@H](CO)[C@@H](O[C@@H]4O[C@H](CO)[C@@H](O)[C@H](O)[C@H]4O)[C@H](O)[C@H]3O)[C@H](O)[C@H]2O)c(Cl)c1
As to the kind of experiment: chromogenic substrate hydrolysis, CNP release. The data set is classed as biochemical, Vitis vinifera. The settings on record: 20 mM sodium citrate, pH 6, 30°C.

Substrate in data set [5]: O=[N+]([O-])c1ccc(O[C@@H]2O[C@H](CO)[C@@H](O[C@@H]3O[C@H](CO)[C@@H](O)[C@H](O)[C@H]3O)[C@H](O)[C@H]2O)c(Cl)c1
Briefly: chromogenic substrate hydrolysis, CNP release. The class given is biochemical, Vitis vinifera. The settings on record: 20 mM sodium citrate, pH 6, 30°C.

Substrate in data set [6]: O=[N+]([O-])c1ccc(O[C@@H]2O[C@H](CO)[C@@H](O[C@@H]3O[C@H](CO)[C@@H](O)[C@H](O)[C@H]3O)[C@H](O)[C@H]2O)c([N+](=O)[O-])c1
Briefly: purified protein. The note with it: 20 mM sodium citrate, pH 6, 30°C.

Substrate in data set [7]: O=[N+]([O-])c1ccc(O[C@@H]2O[C@H](CO)[C@@H](O[C@@H]3O[C@H](CO)[C@@H](O[C@@H]4O[C@H](CO)[C@@H](O)[C@H](O)[C@H]4O)[C@H](O)[C@H]3O)[C@H](O)[C@H]2O)c([N+](=O)[O-])c1
As to the kind of experiment: purified protein. The note with it: 20 mM sodium citrate, pH 6, 30°C.

Substrate in data set [8]: O=[N+]([O-])c1ccc(O[C@@H]2O[C@H](CO)[C@@H](O[C@@H]3O[C@H](CO)[C@@H](O)[C@H](O)[C@H]3O)[C@H](O)[C@H]2O)cc1
As to the kind of experiment: chromogenic substrate hydrolysis, PNP release. The data set is classed as biochemical, Vitis vinifera. The note with it: 20 mM sodium citrate, pH 6, 30°C.

Substrate in data set [9]: O=[N+]([O-])c1ccc(O[C@@H]2O[C@H](CO)[C@@H](O[C@@H]3O[C@H](CO)[C@@H](O[C@@H]4O[C@H](CO)[C@@H](O)[C@H](O)[C@H]4O)[C@H](O)[C@H]3O)[C@H](O)[C@H]2O)cc1
As to the kind of experiment: chromogenic substrate hydrolysis, PNP release. The class given is biochemical, Vitis vinifera. The settings on record: 20 mM sodium citrate, pH 6, 30°C.

Substrate in data set [10]: O=[N+]([O-])c1ccc(O[C@@H]2O[C@H](CO)[C@@H](O[C@@H]3O[C@H](CO[C@H]4OC[C@@H](O)[C@H](O)[C@H]4O)[C@@H](O[C@@H]4O[C@H](CO[C@H]5OC[C@@H](O)[C@H](O)[C@H]5O)[C@@H](O[C@@H]5O[C@H](CO[C@H]6OC[C@@H](O)[C@H](O)[C@H]6O)[C@@H](O)[C@H](O)[C@H]5O)[C@H](O)[C@H]4O)[C@H](O)[C@H]3O)[C@H](O)[C@H]2O)c(Cl)c1
Briefly: chromogenic substrate hydrolysis, CNP release. The class given is biochemical, Vitis vinifera. The note with it: 20 mM sodium citrate, pH 6, 30°C.

Consider `OC[C@H]1O[C@@H](O[C@@H]2[C@@H](O)[C@H](O[C@H]3[C@H](O)[C@@H](O)[C@H](O[C@H]4[C@H](O)[C@@H](O)C(O)O[C@@H]4CO)O[C@@H]3CO)O[C@H](CO)[C@H]2O)[C@H](O)[C@@H](O)[C@@H]1O` (stereo partly drawn) [G3GGG, β-D-Glcp-(1,3)-β-D-Glcp-(1,4)-β-D-Glcp-(1,4)-β-D-Glcp], for which the “X-ray crystallography, 1.65 Å” value on VvEG16 [1] is given as “presence of the α-anomer of G3GGG in the negative subsites”.

Regarding `OC[C@H]1OC(O)[C@H](O)[C@@H](O)[C@@H]1O[C@@H]1O[C@H](CO[C@H]2OC[C@@H](O)[C@H](O)[C@H]2O)[C@@H](O[C@@H]2O[C@H](CO[C@H]3OC[C@@H](O)[C@H](O)[C@H]3O)[C@@H](O[C@@H]3O[C@H](CO[C@H]4OC[C@@H](O)[C@H](O)[C@H]4O)[C@@H](O)[C@H](O)[C@H]3O)[C@H](O)[C@H]2O)[C@H](O)[C@H]1O` (stereo partly drawn) [XXXG], the “X-ray crystallography, 1.59 Å” value on VvEG16 [2] is listed as “Fortuitous crystallization of this variant in complex with the heptasaccharide XXXG in the negative subsites”. For the same molecule, the “X-ray crystallography, 1.79 Å” value at VvEG16 [3] is reported as “Chain A additionally contained an apparent XXXG moiety in the negative subsites”.

B1: VvEG16 (Vitis vinifera; DEL151-151) (protein)
chain: MADPSLHHEAQPLKFIAVDYCPESCTHSPESSTITLTFDHRGGSRWRSTTRFQYGTFSSLIQCPKGNTSGLNFNIYLSSLEGDKSQDEIDFEFLGKDKRIVQTNYYTAGTGNREAIHDLGFDCSDGFHEYVIKWGPDLIQWLIDGKVIRSVRADGEGFPQKPMFLYASVWDASYIDEGRWTGPYVGCDAPYICLYKNVNVPVGTAVE
Consider B1, for which the Km in [4] turned out to be 1100 ± 100 µM; in [5], 3500 ± 400 µM; in “purified protein [6]”, 2000 ± 200 µM; in “purified protein [7]”, 800 ± 60 µM; in [8] it was 5900 ± 600 µM; in [9], 2800 ± 200 µM. The kcat turned out to be 0.0172 ± 0.000667 s⁻¹ in data set [4]; 0.0075 ± 0.000333 s⁻¹ in data set [5]; 0.333 ± 0.0167 s⁻¹ in “purified protein [6]”; 1.58 ± 0.0333 s⁻¹ in the data set “purified protein [7]”; 0.000383 ± 3.33e-05 s⁻¹ in data set [8]; 0.0025 ± 0.0001 s⁻¹ in [9]. The kcat/Km in data set [4] is 16 M⁻¹ s⁻¹; in data set [5] it was 2.1 M⁻¹ s⁻¹; in the data set “purified protein [6]”, 170 M⁻¹ s⁻¹; in “purified protein [7]”, 2000 M⁻¹ s⁻¹; in data set [8], 0.065 M⁻¹ s⁻¹; in [9], 0.9 M⁻¹ s⁻¹.

B2: VvEG16 (Vitis vinifera) (protein)
chain: MADPSLHHEAQPLKFIAVDYCPESCTHSPESSTITLTFDHRGGSRWRSTTRFQYGTFSSLIQCPKGNTSGLNFNIYLSSLEGDKSQDEIDFEFLGKDKRIVQTNYYTAGTGNREAIHDLGFDCSDGFHEYVIKWGPDLIQWLIDGKVIRSVVRADGEGFPQKPMFLYASVWDASYIDEGRWTGPYVGCDAPYICLYKNVNVPVGTAVE
Consider B2, for which, in data set [4], the Km stood at 800 ± 100 µM, the kcat worked out at 0.0163 ± 0.0005 s⁻¹ and the kcat/Km is 20 M⁻¹ s⁻¹. For the same molecule, in data set [10], the Km was determined as 1100 ± 300 µM, the kcat came out at 0.2 ± 0.00833 s⁻¹ and the kcat/Km was 180 M⁻¹ s⁻¹.
